Experimental data taken from the domain aggregation screens of Martell et al. (2025).

Experiment: soluble fraction after stress (log2 fold change); higher = more stays soluble; pooled small domains, quantitative proteomics
Conditions: stress: 75 degC
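Further: 20 min heating vs room temperature control held 20 min.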

Sequence | soluble fraction (log2)
HMQEQIVQGIVKYFDAEKQFGFIAGDDGVDRFFNAKSIQGNAVKTGDRVRFLAISHIRGPRALKISA | -1.24
HMQEQSSYVGQFGTAATTLRPSGTVELEDGTRIDVVTVGEFIEKGEPVQVVRKDGTWLVVEKRRSK | 0.976
HMQERKYTVSFNTNGGSTINDQKITSGNVIISPGAPKRSGYTFVGWYYHGQPFDLNTKINQDYVLVAKWIK | -2.49
HMQETILFGQQKAINNLSSDTGLSENDLDSYLKKRYKKPLYQLTQSEGADIINGFQDGSLSKNSILDYIKP | 0.173
HMQEVKVRLKPDYLGEVLIKVISDKGELKAELFVSNSQVRSLLRAYAVEFQNQIRDQGYNFSEINVYR | -0.738
HMQFAEIPNFSEMALQILRLQADGLSITKIAEALHMNPRTVKYHAQENYRKLQASNKSEALLAARNLNL | -1.85
HMQFEIGDTVRVHVNIREGERERVQMFEGTVIAKRGSGVSETFTVRRVSYGVGVERVFPVNSPNV | 0.437
HMQFETVQDAFNHYRNASLEEIESRAAEIKGIIESDPEADVRALNIEIEGLHQAKQNILEKQKTK | -0.179
HMQFLGKVTVTHARQANLRAQPSMDAAIVGKVNPGEVYNVVSIPKTSWYEIQLQNGKTVFIAAGMVSFRM | -0.441
HMQFSAVVLDMETRRQVAGVAVYINPKGVVKTDMRGRFVIDGAFNSVTLVRQGYESLTLERSEMTDSIWM | -1.64
HMQGEASDAQLKAIFAIARKLGITDDFEVHRKASRLAGVPEPEVLPSLKSLTYAQASAVIKALQEELE | 0.248
HMQGENDVTIDPKKLTIGDLAKEISKIEDSEELNNILVAEKEGKGRKGAINAITERIENVSGGTG | 0.0455
HMQGLIGEQKAIQIALSRVPGAKPEHVRELKLDYDDGMQLYEGEIFYNFREYEFEINAVTGEVVGWEI | -1.01
HMQHRSRALHLQEELVRRYYDQAIAPFMIFWEMKANVTLDQLKELRAVVSPSLNEHPYTKQLDEYIRLAE | -0.595
HMQIEQVDYGTFMTMIDDKKIDKVEIKDNQILFIGKDDNKKYKTGIVQDPQLAERLHASGAVFSQDI | 0.261
HMQIIGEQNQKDFIALFGAILRMRNLLLSFDEFKGNELISERDLQDYLGRYQDLRDEWRNKRRER | -0.0814
HMQINDSSVVQKAVNDVIDQNSKAVSDYWDGKEGAAKFLMGQVMKLTRGQANPDLANQLILTRLQQERV | 0.437
HMQISDEAALLAIVDRVIADNQGPLANYLGGKQSLLGWFVGQVMRATRGQAIPAVVNRLVGERLAAQREE | -0.877
HMQISDESQLREVVSKILEENEQSVIDYKNGKTRAMGFIIGQVMKATRGKANPQLVNEIVKEMLDE | 0.0956
HMQISDTASIQEIAKEIIKSNPKAVEDYKKGKENALQFLVGQLMTKTKGTVHPGAARTILGDILK | -0.0025
HMQISDTSELEAVVQDILKANMDVVAKIKAGKTNSANFLMGQVMKLTKGRAKPDTVLQLILDAVKQ | -0.943
HMQISLAAARVNAGLTQEEVAKAMKVGKQTIVSWEKGNSEPKMSQSRELSELYKIPLDYIFYP | -0.5
HMQITDSGAIETIIDKIIADNPGQVTQYLSGKDKVFGFFVGQTMKASQGKANPAEVNKILQEKLK | -0.0499
HMQITQSSEPIDVSALRLGMFIHLEGGWLSHPFPRSSFKITSEDQLVTLRSLGISVLRWSPELSDPE | -3.52
HMQIVPVDYSTFMQSIDDKTVDHVEIQSNQILYTVKDDHKKYKTGIMNDPTLAQRLMESGATFTQD | 0.12
HMQKAEQIGSLLREKRKSMGLTQDELAQQVEVRRQTLADLELGKNVGSHLLIKVMEHLGVGFDLL | -0.738
HMQKEIKVPDVANMALSEAVEKLQNEGFKVADEQKEVSSDEIEEGKVVKTSPVAGTKKTKGSEITIYISSG | 0.26
HMQKFLEATGENRDAAVENALEQLGLERDDVSVEVLEIGKKGFLGIGATPARVRVTYEAPDI | 0.197

Sequence | soluble fraction (log2)
HMQKKEVTVPEVRSKSLKEAAQILSEQNLKYETEPVNVENPDMVVIDQFPKPGGKISEQSVIILYLR | 0.697
HMQKLNIEEQIVYDIIFKNKELSANEIQIKSGIKTSILNALLINLEIKQYIKLKFGNFYEIK | 0.181
HMQKMPEMQILPNGKVKLPDFSGINMRKAAELLQYGKLRLQPYGSGTAYQQKPAAGTEVDEGTVVEIWF | -0.83
HMQKNFYQILGVDSKASPATINAAYERAKSRVIQSGLEDPDTMALLRDAWETLADPGDRAAYDESLAT | 0.0744
HMQKPELLAPAGSLEKAKTAFKYGADAVYMGTSNLSLRSRVTVDDDELIKTIEYAHSINKKVYAALNIYAR | 0.249
HMQKPWFYESSGQRKGGFSEQEMVGLITDGEITHGAIVWRNGLSDWTKLEQTELAAHLDKTA | -0.11
HMQKRDQKKRANMLDSLKVGTRIVTIGGIFGEIAKIKDDRIRIKVAEDVEIWIRRAAVGTVIT | -1.94
HMQKTPFEIMTIYKDQILEMLGKDLTATEISIVLKKKGEKVHPREIRKFQLQHYEEVQDMRKKWRE | -1.17
HMQKWILVNKQGRLSGILDHRAFNTRESATAWFQRTSDISGGTIKIDDYYYVLKNEEYKLLKE | -3.09
HMQKYEDIINVTRERLQNKFYSQTVIPTDDDIYIWLDKVAILEEIKLSKEDRQMLFNLLKKEAT | -1.35
HMQLGQMIVKLRKEQGLTQETFAKKFNVTRQTVSNWENEKSYPDLHTLVKISDEFHLSLDILLK | -3.14
HMQLGSILAYKFPQFGGIDGAWQVRDDSNGTGPYIAFWDAKTIGRGMPTEDELTAWAQEYEA | -0.206
HMQLPTPEDLKKRRNELGLTQSDLAKRAGVSQPLIARIESGDVDPRLSTVRKILDAFEEVEKEQQ | 0.0518
HMQLSASQQQILNHAAVNTDGKLVWFPETLKGGARKKVLDSLFSRALITTDGTHWFVAAEGYEALGIP | -1.06
HMQLTDLSALEAIIKEVLAANPKSVEDYKSGKEKAFGSLVGQAMKATKGKANPETVNSLLRKNLN | 0.729
HMQLTDSDFTRLYTYVKNSYGIDLSKKKQLISSRLTNMLIQQGYRDFTQYTDEIISGKNPEMVSAMLNRLT | -1.33
HMQLTPAQHAILAKAIHSSDGKIEWFPDNVKGGARKKVLEGMFNRALITPDGEGWRIAAEGYDALGMPRP | -0.097
HMQLVGSSAAVLIPAPAGGLGKIRLEFRGQTIDLIAKATDGGALIEGGAVTIVDVRDGQADVSV | -0.939
HMQMMDATLKIPPSMGKLRGTLYELNSVTSEDVDENGQLALHVRLSSVDWQRLKKRFDSNLDELIVQKN | -0.219
HMQMPLTMATMGEVNKIVKVGGNEETRRFLANLGFVAGAEVVVLSKIGGNVIVNVKDSRVAVNEDMARHIM | -1.19
HMQMSDTAAIGKIVDEVFAENPAALEDYAKGKTNVVDWLTGQVMKKSRGQANPGIASELVQKRLADF | 0.0922
HMQMSDTGAIEAMVKEALDENPQAIEDFKNGKGKALGFLMGQVMKKSKGQANGGIVNKLIKEELQKRIG | 0.292
HMQMTKSEFLDALRRALNGNMAAASVDDNIRFYDSYFYTEETKGRSEAEILSELGDPRILARTLIDAAD | -0.0328
HMQNEIQQLAIDLIARAHKSGASDIHIVDTGTYTRIKFRVLGLLREDSQMEAETGRQMISTIYGILG | -0.0698
HMQNEKLSYFVTETIVTERADLFITKKFPQFSRSQIQKLINSGNITINSNPIKASTEIINKDNIEITIPV | -2.15
HMQNESGLFTMSDLWEAGLMGSENASRKRAAVGAFLGIGFGNGKQFLKRLNHFGVTKEEWESALEQLGE | -1.18
HMQNEVMPYSTFLSEVNSGNVTKVKIDHEQLTGTLKSGKQFTTYILDAATLPSIVAEKGVEVEVVPP | 0.506
